Article PMC10947486

Substrate: O=C(O)CCC(=O)C(=O)O
Assay: purified protein
Conditions: Fe(II) active site Fe(II)

Protein	Km [µM]	kcat [s⁻¹]	kcat/Km [M⁻¹ s⁻¹]
Aspartate/asparagine-β-hydroxylase (AspH) (Homo sapiens; H679A) (protein) RKTDDPEQKAKVKKKKPKLLNKFDKTIKAELDAAEKLRKRGKIEEAVNAFKELVRKYPQSPRARYGKAQCEDDLAEKRRSNEVLRGAIETYQEVASLPDVPADLLKLSLKRRSDRQQFLGHMRGSLLTLQRLVQLFPNDTSLKNDLGVGYLLIGDNDNAKKVYEEVLSVTPNDGFAKVHYGFILKAQNKIAESIPYLKEGIESGDPGTDDGRFYFHLGDAMQRVGNKEAYKWYELGHKRGHFASVWQRSLYNVNGLKAQPWWTPKETGYTELVKSLERNWKLIRDEGLAVMDKAKGLFLPEDENLREKGDWSQFTLWQQGRRNENACKGAPKTCTLLEKFPETTGCRRGQIKYSIMHPGTHVWPATGPTNCRLRMHLGLVIPKEGCKIRCANETKTWEEGKVLIFDDSFEHEVWQDASSFRLIFIVDVWHPELTPQQRRSLPAI	109 ± 20	0.18	1700
Aspartate/asparagine-β-hydroxylase (AspH) (Homo sapiens; H725A) (protein) RKTDDPEQKAKVKKKKPKLLNKFDKTIKAELDAAEKLRKRGKIEEAVNAFKELVRKYPQSPRARYGKAQCEDDLAEKRRSNEVLRGAIETYQEVASLPDVPADLLKLSLKRRSDRQQFLGHMRGSLLTLQRLVQLFPNDTSLKNDLGVGYLLIGDNDNAKKVYEEVLSVTPNDGFAKVHYGFILKAQNKIAESIPYLKEGIESGDPGTDDGRFYFHLGDAMQRVGNKEAYKWYELGHKRGHFASVWQRSLYNVNGLKAQPWWTPKETGYTELVKSLERNWKLIRDEGLAVMDKAKGLFLPEDENLREKGDWSQFTLWQQGRRNENACKGAPKTCTLLEKFPETTGCRRGQIKYSIMHPGTHVWPHTGPTNCRLRMHLGLVIPKEGCKIRCANETKTWEEGKVLIFDDSFEAEVWQDASSFRLIFIVDVWHPELTPQQRRSLPAI	211 ± 65	0.08	380
Aspartate/asparagine-β-hydroxylase (AspH) (Homo sapiens) (protein) RKTDDPEQKAKVKKKKPKLLNKFDKTIKAELDAAEKLRKRGKIEEAVNAFKELVRKYPQSPRARYGKAQCEDDLAEKRRSNEVLRGAIETYQEVASLPDVPADLLKLSLKRRSDRQQFLGHMRGSLLTLQRLVQLFPNDTSLKNDLGVGYLLIGDNDNAKKVYEEVLSVTPNDGFAKVHYGFILKAQNKIAESIPYLKEGIESGDPGTDDGRFYFHLGDAMQRVGNKEAYKWYELGHKRGHFASVWQRSLYNVNGLKAQPWWTPKETGYTELVKSLERNWKLIRDEGLAVMDKAKGLFLPEDENLREKGDWSQFTLWQQGRRNENACKGAPKTCTLLEKFPETTGCRRGQIKYSIMHPGTHVWPHTGPTNCRLRMHLGLVIPKEGCKIRCANETKTWEEGKVLIFDDSFEHEVWQDASSFRLIFIVDVWHPELTPQQRRSLPAI	1.1 ± 0.4	0.31	282000
